Legend:
[1] = molecular target: hTBPQ80, hTBP with an extension of 80 glutamine residues (amino acids 50-142), fused to the N-terminal fragment of Venus (human) (UniProt P20226); test: split reporter (BiFC, NanoBiT); BiFC in HEK293 cells co-transfected with VC- and VN- constructs and pCAG-mCherry; read 48 h after transfection; interaction percent = green cells per 100 red cells
[2] = molecular target: Antp-hTBP heterodimer (VCAntp-VNTBP, Venus reconstituted by BiFC) (Drosophila | human) (UniProt P02833)
Antp-hTBP heterodimer (VCAntp-VNTBP, Venus reconstituted by BiFC) (Drosophila | human), sequence (P02833 whole entry, chain 1 of 2): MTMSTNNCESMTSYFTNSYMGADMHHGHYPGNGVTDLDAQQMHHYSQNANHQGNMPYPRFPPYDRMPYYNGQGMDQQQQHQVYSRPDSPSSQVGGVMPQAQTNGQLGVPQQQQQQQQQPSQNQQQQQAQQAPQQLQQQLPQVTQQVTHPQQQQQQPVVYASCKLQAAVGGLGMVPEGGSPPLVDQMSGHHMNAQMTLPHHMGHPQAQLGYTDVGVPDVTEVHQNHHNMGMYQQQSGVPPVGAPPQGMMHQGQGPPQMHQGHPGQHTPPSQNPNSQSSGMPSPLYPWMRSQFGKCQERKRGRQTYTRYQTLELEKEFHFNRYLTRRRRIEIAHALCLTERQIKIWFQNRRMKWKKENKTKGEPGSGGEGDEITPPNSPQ
Antp-hTBP heterodimer (VCAntp-VNTBP, Venus reconstituted by BiFC) (Drosophila | human), sequence (P20226 whole entry, chain 2 of 2, further chain): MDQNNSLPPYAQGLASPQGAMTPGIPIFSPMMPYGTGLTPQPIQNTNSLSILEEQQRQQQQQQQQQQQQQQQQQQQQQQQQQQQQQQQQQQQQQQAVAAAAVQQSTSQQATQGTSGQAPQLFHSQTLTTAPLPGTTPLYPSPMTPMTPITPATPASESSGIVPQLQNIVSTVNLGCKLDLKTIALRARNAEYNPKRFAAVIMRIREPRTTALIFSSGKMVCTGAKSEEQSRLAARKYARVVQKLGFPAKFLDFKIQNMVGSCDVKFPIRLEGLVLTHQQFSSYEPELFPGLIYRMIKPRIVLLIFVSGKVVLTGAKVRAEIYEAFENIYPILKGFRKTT

hTBPQ80, hTBP with an extension of 80 glutamine residues (amino acids 50-142), fused to the N-terminal fragment of Venus (human), sequence (P20226 whole entry, the tested form may be a part): as the sequence (P20226 whole entry, chain 2 of 2, further chain) above
Antennapedia (Antp), fused to the C-terminal fragment of Venus, sequence (P02833 whole entry, the tested form may be a part): as the sequence (P02833 whole entry, chain 1 of 2) above
AntpΔN, Antp lacking the N-terminal region (amino acids 1-269), fused to the C-terminal fragment of Venus, sequence (P02833 270-378, stated change not applied): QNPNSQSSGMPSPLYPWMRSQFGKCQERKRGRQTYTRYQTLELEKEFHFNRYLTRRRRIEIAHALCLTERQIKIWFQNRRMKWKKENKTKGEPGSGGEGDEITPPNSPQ

percent of transfected cells showing BiFC [1] [%] | Antp transactivation on pGLH11 with co-expressed TBP and BIP2, percent of Antp alone (Fig. 5D) [2] [%] | Substance
78 | – | Antennapedia (Antp), fused to the C-terminal fragment of Venus (from UniProt P02833 1-378) (natural protein)
47 | – | AntpΔN, Antp lacking the N-terminal region (amino acids 1-269), fused to the C-terminal fragment of Venus (from UniProt P02833 270-378) (domain or fragment)
– | 74 | Bric-a-brac interacting protein BIP2 (2–89) fused to ECFP (from UniProt Q9XZU7 2-89) (domain or fragment)
